Results: the nanobody polyreactivity screen of Harvey et al. (2022)

Assay: yeast display, Sf9 membrane polyspecificity reagent, FACS + sequencing; frameworks hold sequencing errors
Method in brief: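 A nanobody's polyreactivity label depends on the gate it was sorted from. Yeast display cells were stained with 10% biotinylated, detergent-solubilized Sf9 membrane reagent for 1 hour at 4 °C, enriched on streptavidin microbeads and sorted by FACS. The low and high (top ~1%) gates were set on anti-HA fluorescence for expression and streptavidin fluorescence for reagent binding.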

Sequence | polyreactivity (PSR sort gate)
QVQLVESGGGLVQAGGSLRLSCAASGFIFFVNAMGWYRQAPGKEREFVATITGSGGSTYYADSVKGRFTISRDNAKNTVYLQMYSLKPEDTAVYYCNAETYIDLRGKFPVEYDYWGQGTQVTVSS | low polyreactivity
QVQLVESGGGLVQAGGSLRLTCAASGRIFDGYAMGWYRQPPRKERELVAAISSRGGRTYYADSVKGRFTISRDNAKNTVYLQMNSLKPEDTAVYYCAADDPYGEGDYWGQGTQVTVSS | low polyreactivity
QVQLVESGGGLVQAGGSLRLSCAASGRTFVRYAMGWYRQAPGKERELVAAISQSGGDTYYADSVKGRFTISRDNAKNTVYLQMNSLKPEDTPVYYCAARSDDVSRYGYWGQGTQVTVSS | low polyreactivity
QVQLVESGGGLVQAGGSLRLSCAASGNTFHPYAMGWYRQAPGKERALVAAITKSGGSTYYADSVKGRFTISRDNAKNTVYLQMNSLKPEDTAVYYCATDGYEYTDYGSSGYDYWGQGTQVTVSS | low polyreactivity
QVQLVESGGGLVQAGGSLRLICAASGITFGCNAMGWYRQAPGKEREFVAAITFSDGSTRYADSVKGRFTISRDNAKNTVYLQMNSLKPEDTAVYYCAADTWSDKYDYWGQGTQVTVSS | low polyreactivity
QVQLVESGGGLVQAGGSLRLSSAASVIIFSNNAMGWSRQAPGKERELVAAISRSGGSTYYADSLKGRFTISRDNAKNTVYLQMNSLKPEETAVYYCAARARSRYDSWGQGTQVTVSS | low polyreactivity
QVQLVESGGGLVQAGGSLRLSCAASGLTFRWYAMGWYRQAPGKEREWVAAISSGGRTYYADSVKGRFTISRDNAKNTVYLHMNSLKPEDTAVYYCNKRTLDYGFGSYGRDYWGQGTQVTVSS | high polyreactivity
QVQLVESGGGLVQAGGRLRLSCAASGSIFYGYDMGWYRQAPGKERELVAAITIGGGTTYYADSVKGRFTISRDNAKNTVYLQMNSLKPEDTAVYYCAKTYARPTRVQKYSGEGGYWGQGTQVTVSS | high polyreactivity
QVQLVESGGGLVQAGGSLRLSCAASGSTFWANAMGWYRPAPGKERELVAGITWNAGSTYYADSVKGRFTISRDNAKNTVYLQMNSLKPEDTAVYYCAAYYHFQGWGPGYNSWGQGTQVTVSS | low polyreactivity
QVQLVESGGGLVQAGGSLRISCAASGSTVHYMAWYRQAPGKEREMVAGISWSGGSTYYADSVKGRFTISRDNAKNTVYLQMNSLKPEETAVYYCAADHFNYTSGRDYWGQGTQVTVSS | low polyreactivity
QVQLVESGGGLVQAGVSLRLSCAPSGRTFIYYAMGWYRQAPGKERELVATINGITGSTYYADSVKGRFTNSRDNAKNTVYLQMNSLKPEDTAVYYCAKVPRKYRAWMDYWGQGTQVTVSS | high polyreactivity
QVQLVESGGGLVQAGGSLRLSCAASGSIFTSNAMGWYRQAPGKEWELVAAITSDGAITYADSVKRRFTISRDNAKNTVYLQMNTLKPEDTAVYYCAARIRQNPGGDNSWGQGTQVTVSS | low polyreactivity
QVQLVESGGGLVQAGGSLRLSCAASGSILWENAMGWYRQAPGKERELVATISVSGGGTYYADSVKGRFTISRDNAKNTVYLQMNSLKPEDTAVYYCAAPGFPSRNGFGYWGQGTQVTVSS | low polyreactivity
QVQLVESGGGLVQAGGSLRLSCAASGLIFIIYTMGWYRQAPGKERELVAAITRRGGITYYADSVKGRFTISRDYAKNTVYLQMNSLKPEDTAVYYCAVVRPYNIWYDYWGQGTQVTVSS | low polyreactivity
QVQLVESGGGLVQAGGSLRLSCAASGFIFPVYTKGWYRQAPGKERELVAAITQIGGSTHYADSVKGRFTISRDNAKNTVYLQMNSLKPEDTAVDYCNAVPSYGTEYDYWGQGTQVTVSS | low polyreactivity
QVQLVESGGGLVQAGGSLRLSCAASGRIFFDYAMGWYRQAPGKERELVAAISSGGSRTYYADSVKGRFTISRDNAKNTVYLQMNSLKPEDTAVYYCAADSTVYQDEYWGQGTQVTVSS | high polyreactivity
QVQLVESGGGLVQAGGSLRLSCAASGNIFLDYAMGWYRQAPGKEREWVAAITSGGSTNYADSVKGRFTISRDNAKNTVYLQMNSLKPEDTAVYYCNKDVWDGYDWPEFDYWGQGTQVTVSS | low polyreactivity
QVQLVESGGGLVQAGGSLRLSCAASGRTFATNARGWYRQAPGKERELVAGINGSGSTNYADSVKGRFTISRDNAKNTVYLQMNSLKPEDTAVYYCAAYVGLYYRLHYYYWGQGTQVTVSS | low polyreactivity
QVQLVESGGGLVQAGGSLRLSCAASGRTFSRNTMGWYRQAPGKERELVAAIRSGGRTDYADSVKGRFTISRDNAKNTVYLQMNSLKPEDTAVYYCATVAGVSRWRGGYWGQGTQVTVSS | low polyreactivity
QVQLVESGGGLVQAGGSLRLSCAASGITFCYNTMGWYRQAPGKERELVAAISGSGGRTYYADSVKGRFTISRDNAKNTVYLQMNSLKPEDTAVYDCAARWQIWSSLYDYWGQGTQVTVSS | high polyreactivity
QVQLVESGGGLVQAGGSLRLSGAASGRTLVPYAMGWYRQAPGKERELVAAISSGGSTNYADSVKGRFRISRDNAKNTVYLQMNSLKPEDTAVYYCAYCGQGTQVTVSS | low polyreactivity

Sequence | polyreactivity (PSR sort gate)
QVQLVESGGGLVQAGGSLRLRCAASGGIFTNNAKGWYRQAPGKERELVAAITGSGASTYYADSVKARFTISRDNAKNSVYLHLNSLKPEDTAVYYCNTDSPYGWEGEFDYWGLGTQVTVSS | high polyreactivity
QVQLVESGGGLVQAGGSLRLSCAASGSIFAYYAMGWYRQAPGKERDLVAAISYSGDGTYYADSVKGRFTISRDNAKNTVYLQMNSLKREDTAVYYCATQIYPLDFYQGDWNDYWGQGTQVTVSS | low polyreactivity
QVQLVESGGGLVQAGGSLRLSSAASGRTFRGNAMGWYSQAPGKERELVAAIRWNGGSTYYADSVKGRFTISRDNAKNTVYLQMNSLKPEDTAVYYCAVSYWYSRYDYWGQGTQVTVSS | high polyreactivity
QDQLVESGGGLVQAGGSLRLSCAASGFTFYGYAMGWYRQAQGKERELVAAISSSGGRTYYADSVKGRFTISRDNAKNTVYLQMNSLKPEDTAVYYCAARARYIRGGGSRAYIGYYWGQGTQVTVSS | high polyreactivity
QVQLVESGGGLVQAGGSLRLSCAASGLIFLGNAMGWYRQAPGKERELVAAISRSGGTTYYADSVKGRFTISRDNEKNTVYLQMNSLKPEDTAVYYCNAYNPYYRATVSSRGYGYWGQGTQVTVSS | high polyreactivity
QVQLVESGGGLVQAGGSLRLSCAASGNTFYIYAMGWYRQAPGKERELVAAISRGGGSTYYAESVKGRFTISRDNAMNTVYLQLNSLKPEDTAVYYCAADYYYSRYDYWGQGTQVTVSS | high polyreactivity
QVQLVESGGGLVQAGGSLRLSCAASGRIIYSNAMGWYRQAHGKERELVASISPNTGTTYYADSVKGRFTISLDNAKNTVYLQMNSLKPEDTAVYYCAARGGYYQDGLVTGEAEYGYWGQGTQVTVSS | low polyreactivity
QVQRVESGGGLVQAGGSLRLSCAASGFIFYFYAMRWYRQAPGNERELVAAITWSGTDTYYADSVKGRFTISRDNAKNTVYLQMNSLKPEDTAVYYCARSEHSLVSIKVDYWGQGTQVTVSS | low polyreactivity
QVQLVESGGGLVQAGGSLRLSCAASGFTFTYYTMGWYRQATGKERELVAGISRSGGSTYYADSVKGRFTISRDYAKNTVYLQMNSLKPVDTAVYYCAAGSIQYRPTYTGDYWGQGTQVTVSS | high polyreactivity
QVQLVESGGGLVQAGGSLRLSCAASGIIIDSNAMGWYRQAPGKERELVAAITSGGSTKYADSVKGRFTISRDNAKNTVYLQMNSLKPEDTAVYYCAAGGSYYRDDYWGQGTQVTVSS | low polyreactivity
QVQLVESGGGLVQAGGSLRLSCAASGRTFPYNAMGWYRQAPGKERELVAAITSSGGSTYYADSVKGRFTISRDNAKNTVYLQMNSLKPEDTAVYYCAKGYYSPNYYYWGQGTQVTVSS | high polyreactivity
QVQLVESGGGLVQAGGSLRLSCAASGLTFANYAMGWYRQAPGKERELVAAISTWSGGSTYYADSVKGRFTISRDHAKNTVYLQMNSLKPEDTAVYYCNTDRYWGKGDYWGQGTQVTVSS | high polyreactivity
QVQLVESGGGLVQAGGSLRLSCAASGSTYIVYAMGWYRQAPGKERELVAAIRGRGGSTYYADSVKGRFTISRDNAKNTVYLQMNSLKPEVTAVYYCAARGISPLEMYYWGQGTQVTVSS | high polyreactivity
QVQLVESGGGLVQAGGSLRLSCAASGITFGYYAMGWYRQAHGKERELVAAITYSGGSTYYADSVKGRFTISRDNAKNTVYLQMNSIKPEDTAVYYCAADDGYTYYWAGYDSWGQGTQVSVSS | low polyreactivity
QVQLQESGGGLVQAGGSLRLSCASSGYISQSSVMGWYRQAPGKEREFVASISYGATTYYADSVKGRFTISRDNAKNTVYLQTNSPKPEDTAVYYCAVWVKRGFSHRYWGQGTQVTVSS | high polyreactivity
QVQLVESGGGLVQAGGSLRLSCAASGFAFSYYAMGWSRQAPGKEREFVASIDWSGGSTYYADSVKGRFTISRDNAKNTVYLQMNSLKPEDTAVYYCAAELDYFPGYDYWGQGTQVTVSS | low polyreactivity
QVQLVESGGGLVQAGGSLRLSCAASGSIFRYYAMGWYRQAPGKERELVAAITASGGRTHYADSVKGRFTISRDNAKNTVYLQLNSLKLEDTAVYYCAADLYYAWYWKQHYDYWGQGTQVTVSS | high polyreactivity
QVQLVESGGGLVQAGGSLRLSCAASGSTFSKYTMGWYRQAPGKERELVAAISVSVGRTYYADSVKGRFTISRDNAKNTVYLQMNSLKPEDTAVYYCAAAYSGLYYWGQGTQVTVSS | high polyreactivity
QVQLVESGGGLVQAGGSLRLSCDASGSTFVGYTMGWYRQAPGKERELVAAITWRGGITYYADSVKGLFTISRDNAKNTVYLQMKSLKPEDTAVYYCAGARYRHGRSGTYDVTGEYWGQGTQVTVSS | high polyreactivity
QVQLVESGGGLVQAGGSLRLSCAASGSIFVRNAMGWYRQAPGKERELVAAITYRGGSTYYADSVKGRFTISRDNAKNTVYFQMNSLKPEDTAVYYCFDVNTDVLSRVYRGWGYYYWGQGTQVTVSS | low polyreactivity
